Target: the molecule itself
Assay: ThT aggregation kinetics + TEM; 5 μM core peptide, 20 μM ThT, with or without 2.5% fibrillar seeds of the same peptide; 25 °C, 40 h, shaken 5 s at 100 rpm before each reading; TEM at the end

B1: TDP-43 core peptide 279–360 (peptide, UniProt Q13148 279-360, looked up)
chain: NPGGFGNQGGFGNSRGGGAGLGNNQGSNMGGGMNFGAFSINPAMMAAAQAALQSSWGMMGMLASQQNQSGPSGNNQNQGNMQ
notes: also called amyloid core peptide; source: lyophilized, disaggregated in HFIP/TFA
  binding result: binds

— article PMC10767740, “Recombinant Full-Length TDP-43 Oligomers Retain Their Ability to Bind RNAs, Are Not Toxic, and Do Not Seed TDP-43 Aggregation in Vitro” (ACS Chemical Neuroscience, 2023)
